For this assay, the target named is T1, full-length human LOX-1 fused to yellow fluorescent protein, expressed on CHO-K1 cells (human, UniProt P78380 1-273).
T1 construct: LOX-1 (low-density oxidized lipoprotein lectin-like receptor 1), human, full length, on transfected CHO-K1 cells; pEYFP-N1 usually places the YFP at the C-terminus of the insert (surmise); also called low-density oxidized lipoprotein lectin-like receptor 1; LOX-1-expressing cells; source: CHO-K1 cells, transiently transfected (pEYFP-N1 vector), on live cells
The assay can be described thus: flow cytometry on cells; CHO-K1 cells transiently expressing human LOX-1-YFP mixed with NadA3 protein (200 µg/ml) for 30 min at 37°C; detected with mouse polyclonal anti-NadA3 and APC-conjugated secondary antibody. The note with it: one partner purified.

B1: NadA3 24–170 K68A K69A D70A mutant (domain or fragment)
chain: ATNDDDVKKAATVAIAAAYNNGQEINGFKAGETIYDIDEDGTITAAAATAADVEADDFKGLGLKKVVTNLTKTVNENKQNVDAKVKAAESEIEKLTTKLADTDAALADTDAALDATTNALNKLGENITTFAEETKTNIVKIDEKLEA
notes: NadA3, N. meningitidis serogroup B strain 2996, UniProt Q8KH85, residues 24-170 with K68A, K69A and D70A
For B1, the “percent doubly positive cells (LOX-1 and NadA)” value is 49.8%.

(Values after article PMC6191539, “NadA3 Structures Reveal Undecad Coiled Coils and LOX1 Binding Regions Competed by Meningococcus B Vaccine-Elicited Human Antibodies” (mBio, 2018).)
